Test [1] concerns the target T1, Mouse MARCO, full length, on cells (mouse, UniProt Q60754 1-518).
T1 construct: whole, on cells; the cell type is named under assay; also called muMARCO; MuMARCO
T1 sequence (looked up): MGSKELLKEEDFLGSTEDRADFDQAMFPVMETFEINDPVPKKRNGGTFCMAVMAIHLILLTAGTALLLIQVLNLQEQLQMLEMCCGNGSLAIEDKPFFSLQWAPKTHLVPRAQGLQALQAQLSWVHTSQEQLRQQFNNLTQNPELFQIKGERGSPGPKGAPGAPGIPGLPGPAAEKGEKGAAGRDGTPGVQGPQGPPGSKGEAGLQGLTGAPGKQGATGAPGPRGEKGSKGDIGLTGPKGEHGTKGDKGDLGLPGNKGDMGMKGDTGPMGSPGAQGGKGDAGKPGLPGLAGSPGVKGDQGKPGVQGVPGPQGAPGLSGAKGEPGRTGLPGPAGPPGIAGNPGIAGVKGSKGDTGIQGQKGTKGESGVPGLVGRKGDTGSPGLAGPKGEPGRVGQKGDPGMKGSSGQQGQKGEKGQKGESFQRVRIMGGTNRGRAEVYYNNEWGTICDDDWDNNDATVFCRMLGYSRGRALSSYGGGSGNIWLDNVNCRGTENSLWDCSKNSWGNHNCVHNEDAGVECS
Description: flow cytometry, 293T (muMARCO). A general note: Flow cytometry measures light scatter and fluorescence of single cells or particles in a stream.

Test [2] concerns the target T1, Mouse MARCO, full length, on cells. Description: flow cytometry, 293T cells expressing mouse MARCO.
The target in test [3] is T2, recombinant cynomolgus MARCO protein (cynomolgus, UniProt A0A2K5X0Z2 65-519).
T2 construct: Construct not described; also called cyno MARCO; cynoMARCO
T2 sequence: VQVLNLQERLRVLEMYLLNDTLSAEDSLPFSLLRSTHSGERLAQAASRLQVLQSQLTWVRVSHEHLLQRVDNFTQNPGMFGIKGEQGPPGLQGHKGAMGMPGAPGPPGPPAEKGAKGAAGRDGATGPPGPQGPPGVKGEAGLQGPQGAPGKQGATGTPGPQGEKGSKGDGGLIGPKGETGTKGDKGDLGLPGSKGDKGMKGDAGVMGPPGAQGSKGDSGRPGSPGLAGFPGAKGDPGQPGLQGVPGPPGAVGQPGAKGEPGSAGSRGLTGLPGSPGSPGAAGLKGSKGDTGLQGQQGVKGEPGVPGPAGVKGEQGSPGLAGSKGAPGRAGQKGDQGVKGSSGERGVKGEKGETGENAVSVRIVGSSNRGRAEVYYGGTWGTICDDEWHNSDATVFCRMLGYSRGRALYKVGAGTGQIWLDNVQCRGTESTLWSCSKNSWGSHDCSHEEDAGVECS
Description: KD (nM) Cyno; method not given.

For test [4], the target named is T3, N-terminally polyhistidine tagged human MARCO ECD (147-520), recombinant (human, UniProt Q9UEW3 147-520).
T3 construct: also called PI-RG-3000; recombinant human MARCO; not shown: N-terminal polyhistidine tag
T3 sequence: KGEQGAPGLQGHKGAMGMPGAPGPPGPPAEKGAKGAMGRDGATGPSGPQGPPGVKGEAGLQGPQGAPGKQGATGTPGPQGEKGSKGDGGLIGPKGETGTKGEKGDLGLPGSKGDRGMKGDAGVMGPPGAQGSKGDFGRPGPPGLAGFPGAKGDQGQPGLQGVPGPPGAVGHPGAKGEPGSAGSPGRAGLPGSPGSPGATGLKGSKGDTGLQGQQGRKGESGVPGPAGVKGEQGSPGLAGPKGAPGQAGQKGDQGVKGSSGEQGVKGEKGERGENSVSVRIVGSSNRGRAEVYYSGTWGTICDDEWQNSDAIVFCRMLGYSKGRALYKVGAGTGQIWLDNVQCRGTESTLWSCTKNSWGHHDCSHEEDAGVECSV
Nature of the test: ProbeLife Gator. As to the method:
The kinetics assay used either anti-mouse Fc or anti-human Fc probes to capture the anti-MARCO antibodies onto the probe, and then a five-step kinetic protocol was used to measure the affinity of the antibodies to the antigen, including the following steps: baseline, loading, baseline, association, and dissociation. The kinetics buffer (K buffer) provided by ProbeLife was used to establish the baseline for 60 seconds, and then the anti-mFc or anti-hFc probes were loaded with 200 nM of the antibodies for 120s until the capture reached saturation, measurement of the baseline in K buffer was performed for another 60s, followed by the association step using 200 nM antigen (human MARCO, mouse MARCO or cyno MARCO), and the dissociation step performed in K buffer for 5-10 minutes. The assay was done at 37° C. to maximize antibody:antigen dissociation.

In a further test the target is T4, hVar3 (RG3036) (human, UniProt Q9UEW3 147-520).
T4 construct: Human MARCO His-CLD-SRCR with Q452D, Y472S and K473S (already in the entry); also called recombinant human SRCR MARCO hVar3 protein
Nature of the test: ELISA on hVar3. Background: ELISA stands for enzyme-linked immunosorbent assay.

The target of test [5] is T3, N-terminally polyhistidine tagged human …. Nature of the test: ELISA readout A450-A620; the panel names no target, the legend says MARCO expressing cells; stable transfection pools.
Test [6] has the same target. Description: Biacore; sample oxidized with 1 mM AAPH, 6 hrs, 40 C. As to the method:
(PBS)+1 mM AAPH for 6 h, 0.5 and 1.5% H₂O₂ in PBS for 24 h, which was compared to a previous experiment at 40° C. (PBS)+1 mM AAPH for 6 h. Post treatment the samples were analyzed by LC-MS/MS which identified the % modification on isolated peptides derived from the antibody after trypsin digest.
Binding of the stressed samples to recombinant human MARCO was assessed by Biacore.
(Surface plasmon resonance follows binding to a sensor surface in real time, without labels.)

B1: PI-HX-3061 (antibody, rat IgG2a)
heavy: EVQLVESGGGLVQPGSSLKLSCVASKFTFSNYGMNWIRQAPKKGLEWIALIYYNSNNKYYADSVKGRFTISRDNSKNTLYLEMNSLRSEDTAMYYCAKSLTGGSDYFDSWGQGVMVTVSSAETTAPSVYPLAPGTALKSNSMVTLGCLVKGYFPEPVTVTWNSGALSSGVHTFPAVLQSGLYTLTSSVTVPSSTWPSQTVTCNVAHPASSTKVDKKIVPRNCGGDCKPCICTGSEVSSVFIFPPKPKDVLTITLTPKVTCVVVDISQDDPEVHFSWFVDDVEVHTAQTRPPEEQFNSTFRSVSELPILHQDWLNGRTFRCKVTSAAFPSPIEKTISKPEGRTQVPHVYTMSPTKEEMTQNEVSITCMVKGFYPPDIYVEWQMNGQPQENYKNTPPTMDTDGSYFLYSKLNVKKEKWQQGNTFTCSVLHEGLHNHHTEKSLSHSP
light: DVQMTQSPSYLAASPGESVSISCKASKSIGTFLAWYQEKPEKTNKLLIYSGSTLQSGTPSRFSGSGSGTDFTLTIRNLEPEDFAVYYCQQHDEYPFTFGSGTKLEIKRADAAPTVSIFPPSTEQLATGGASVVCLMNNFYPRDISVKWKIDGTERRDGVLDSVTDQDSKDSTYSMSSTLSLTKADYESHNLYTCEVVHKTSSSPVVKSFNRNEC
notes: Parental rat hybridoma, rat IgG2a; cross reactive with human and mouse MARCO
B1: the EC50 in test [1] stood at 2.53 nM.

B2: PI-HX-3031 (antibody)
heavy: QVQLKESGPGLVQPSQTLSLTCTVSGFSLTSYHVSWVRQPPGKGLEWMGAIWTGGSIAYNSLLKSRLSISRDTSKSQVFLKMNSLQTEDTATYYCARDLSDYYSSYTSFDYWGQGVMVTVSTAETTAPSVYPLAPGTALKSNSMVTLGCLVKGYFPEPVTVTWNSGALSSGVHTFPAVLQSGLYTLTSSVTVPSSTWSSQAVTCNVAHPASSTKVDKKIVPRECNPCGCTGSEVSSVFIFPPKTKDVLTITLTPKVTCVVVDISQNDPEVRFSWFIDDVEVHTAQTHAPEKQSNSTLRSVSELPIVHRDWLNGKTFKCKVNSGAFPAPIEKSISKPEGTPRGPQVYTMAPPKEEMTQSQVSITCMVKGFYPPDIYTEWKMNGQPQENYKNTPPTMDTDGSYFLYSKLNVKKETWQQGNTFTCSVLHEGLHNHHTEKSLSHSP
light: DIQMTQSPASLSTSLGETVSIECLASEGISNDLAWYQQKSGKSPQLLIYAASRLQDGVPSRFSGSGSGTRYSLKISGMQPEDEADYFCQQSYKYPLTFGSGTKLEIKRADAAPTVSIFPPSTEQLATGGASVVCLMNNFYPRDISVKWKIDGTERRDGVLDSVTDQDSKDSTYSMSSTLSLTKADYESHNLYTCEVVHKTSSSPVVKSFNRNEC
notes: Parental rat hybridoma, rat IgG2a
As for B2, the binding result in test [2] is “no binding”.

B3: PI-3010-AB (antibody, human IgG1, kappa)
heavy: not shown
light: DIQMTQSPASLSTSLGETVSIECLASEGISNDLAWYQQKSGKSPQLLIYAASRLQDGVPSRFSGSGSGTRYSLKISGMQPEDEADYFCQQSYKYPLTFGSGTKLEIKRTVAAPSVFIFPPSDEQLKSGTASVVCLLNNFYPREAKVQWKVDNALQSGNSQESVTEQDSKDSTYSLSSTLTLSKADYEKHKVYACEVTHQGLSSPVTKSFNRGEC
As to B3, in test [3], the Kd turned out to be 0.26 nM. The koff in test [4] is 0.00234 s⁻¹. Further, the binding result with hVar3 (RG3036) is “no binding”.

B4: PI-3015-AB (antibody, human IgG1, kappa)
heavy: not shown
light: DIQMTQSPSSLSASVGDRVTITCRASEGISNDLAWYQQKPGKAPKLLIYAASRLQSGVPSRFSGSGSGTDYTLTISSMQPEDFATYYCQQSYKYPLTFGQGTKLEIKRTVAAPSVFIFPPSDEQLKSGTASVVCLLNNFYPREAKVQWKVDNALQSGNSQESVTEQDSKDSTYSLSSTLTLSKADYEKHKVYACEVTHQGLSSPVTKSFNRGEC
With B4, the “EC50 (read off the curve)” value in test [5] was ~0.2 nM. For the same molecule, the Kd in test [6] was 1.1 nM.

As a reminder, the EC50 is the concentration needed to bring the measured effect to its halfway point. The Kd is the free concentration of one partner at which half of the binding sites on the other are occupied at equilibrium, for simple one-to-one binding. What is called koff is the rate constant with which the complex falls apart. Broadly, the EC50 (read off the curve) is the concentration needed to bring the measured effect to its halfway point.
